The nature of the series: soluble on expression in E. coli; label from the status in PepcDB or PDB records.
Consider “MLVEEAPVDADLGAAVTRLRALALEALCAGSLSAEQVLDHTRPAALALALAVCTPAEYARPWFRRATGDVRVLLARRLAEELGEDHVRWAAAIDLSGSFAGSVGELLHSDEAPGSVHRFLHPHRSSHATQNLLLALAPRDVAARYLAGLVETRRPNVVAYKMDWMLRSGPLSRPLVARGVGGSVGGQRELLGNDLCPDFVLEQVHGGYARHVMYREIIPPKVLKRAFRAYAASEPAHEVRAWAVSLLGERTDRLMDLAWSLTDAPTLLHRLVAAVLDRADPATLTCLYGALAEAAGPEPVWALDLERAGSLDAVQPAVRASMAAGSAEPLVEAAKRIPRRHWLDVLDEEAFGGQMLRDEAELDRTGHFPLEALVAARLDGRPERWAEVARQVAGGRMPVEAVVEGVVAAAIEEIGESAAKTAPETPTEAAPETTAEAAPQTPAEAAPQTPANAAPQTPTKPAPQPPAASPIAAPPAHAAPSASTT”, for which the “soluble on expression in E. coli” value is “not soluble”. In the case of “MGSDKIHHHHHHMEITSKTYLSTILGNDLAAGFYPTPLTEGNHLIQLLQMESERAYACFDPCCGEGTILRSFADAVKQVGIQLDTYGVELDANRYNKAKEQLDVVIRSSFESMMISHDYFPLIFLNPPYNTELRTEKKKSEKMEFNFLKRAHHYLQDGGIMVYVIPYDRFARDEISYFLAKNYEEIGLMRFGDENEEFEQFKQCVFIGRKRAATKNDTYFNDRFANFCENMSELDFVREHVNTLAQMVNRKSWTIPTLRNQNKLIFTSRVDYKDAYEGVGKSEGILTLKKRLNRGNGYSLQAEKTAAERAKMPIASGQLGLLLITGVADGLLGEGDTLHAVRGSENVFFETSFEKLETTTKEVVLQKRRAKFIIATPTGEVKELV”, the “soluble on expression in E. coli” value is “not soluble”. For “VIHLDSKNFDSFLASHEIAVVDFWAEWCAPCLILAPIIEELAEDYPQVGFGKLNSDENPDIAARYGVMSLPTVIFFKDGEPVDEIIGAVPREEIEIRIKNLLGE”, the “soluble on expression in E. coli” value is “soluble”. With “MNTQSLMSSTHTIAASDPHIQVMGRTHINDDASLTFGYPGVSLSTIVAGSRLTAEMQSSNGNSWIDVIIDNHPPTSIKLDAQQQTVELFHFPNSGEHRVEIIHRSENWHGQVTLKQLTLTGTQFLPAPVLPQRKILVLGDSVTCGEAIDRVAGEDKNTRWWNARESYGMLTAKALDAQVQLVCWGGRGLIRSWNGKTDDANLPDFYQFTLGDTGQAPQWDHHRYQPDLIISAIGTNDFSPGIPDRATYINTYTRFVRTLLDNHPQATIVLTEGAILNGDKKAALVSYIGETRQQLHSNRVFYASSSHHPGDNSDAHPTKDQHAAMARELTPQLRQIMDWLEHHHHHH”, the “soluble on expression in E. coli” value is listed as “soluble”. Consider “MGSSHHHHHHSSGLVPRGSMNNIYPLVICGPSGVGKGTLIKKLLNEFPNYFYFSVSCTTRKKREKEKEGVDYYFIDKTIFEDKLKNEDFLEYDNYANNFYGTLKSEYDKAKEQNKICLFEMNINGVKQLKKSTHIKNALYIFIKPPSTDVLLSRLLTRNTENQEQIQKRMEQLNIELHEANLLNFNLSIINDDLTLTYQQLKNYLLNSYIHLNNHTRN”, for which the “soluble on expression in E. coli” value is given as “soluble”.

As for “MSSVERYLSQLVKTEPQLETLKELYIGKKWHQLTEELLKLIHSGQVNRINLVELYDSFIREFESSLNPLALVRILVGIARKNYRDLNKALEFVDYATNSKAFISADEEASLFLKSETARLKLEGGNLSGVKQILEEVGVAMESTRDLDTVVHSSYHRVCAQYYKAVGPATKYYSSALLFFQYAPLDSFTVEERVHWAYDLGVASIVAETIFNFGEILEYDIMQSLKSEKLQWLLELLEAFKYGSIEKFNQIGNRARDQINQEPALSSNWQFLEQKIRLRSLMELATKKLVERVISFDDICSSCEVTKDQVEYLVMKALSLHLLQGTINEMDETVSISYVQPKTLDRNEVEGLYNRLIPWKTHVHEIALSLERSTEADLAQAQN”, the “soluble on expression in E. coli” value is listed as “soluble”. The same measure for “MNNNDLVAKLWKLCDNLRDGGVSYQNYVNELASLLFLKMCKETGQEADYLPEGYRWDDLKSRIGQDQMQFYRNLLVQLGSDEKKLVQAVFHNVSTTIEQPKQLTELVSYMDALDWYNGNHGKSRDDFGDMYEGLLQKNANETKSGAGQYFTPRPLIKTIIHLLKPQPREVVQDPAAGTAGFLIEADRYVKSQTNDLDDLDGDTQDFQIHRAFIGLELVPGTRRLALMNCLLHDIEGNLDHGGAIRLGNTLGSDGENLPKAHIVATNPPFGSAAGTNITRTFVHPTSNKQLCFMQHIIETLHPGGRAAVVVPDNVLFEGGKGTDIRRDLMDKCHLHTILRLPTGIFYAQGVKTNVLFFTKGTVTNPHQDKNCTDDVWVYDLRTNMPSFGKRTPFTEQHLQPFETVYGEDPHGLSPREEGEWSFNAEESEVADSEENKNTDQHQATSRWRKFSREWIRSAKSDSLDISWLKDKDSIDADSLPEPDVLAAEAMGELVQALGELDALMRELGAGDEADAQRQLLNEAFGEVKA”: “not soluble”. As for “MGSDKIHHHHHHMATLYLIEQGAEIGCDGERIVVRRAGEIIGSVPLVKVDDIVIFGNIGISTPAIKRLLDRSIEVTFMTVDGSYQGRLVGQVTAHVALRQAQYACAADSDRTLRLAQSFVEGKLRNQRALLQRFSRNRATPPAEALAAADDLDAYIKRVRRTTRLSALLGVEGSATARYFAGLRSLIEPEWDFRSRQRRPPPDPVNLLLSFGYTLLTHKTLGAVQAAGFDPYLGFLHSLDYGRPSLALDLMEEFRPLLIDSLVVRVCNDGRLRLEHFQPGDEARPVIITDEGKRAFLTAFEERMRTEATHPEGADSGPGKVTYQRCIALQARRLARVIRGQQERYEPFTAR”, the “soluble on expression in E. coli” value is reported as “not soluble”. With “MTDKTIAFSLLDLAPIPEGSSAREAFSHSLDLARLAEKRGYHRYWLAEHHNMTGIASAATSVLIGYLAANTTTLHLGSGGVMLPNHLPLVIAEQFGTLNTLYPGRIDLGLGRAPGSDQRTMMALRRHMSGDIDNFPRDVAELVDWFDARDPNPHVRPVPGYGEKIPVWLLGSSLYSAQLAAQLGLPFAFASHFAPDMLFQALHLYRSNFKPSARLEKPYAMVCINIIAADSNRDAEFLFTSMQQAFVKLRRGETGQLPPPIQNMDQFWSPSEQYDVQQALSMSLVGDKAKVRHGLQSILRETDADEIMVNGQIFDHQARLHSFELAMDVKEELLG”, the “soluble on expression in E. coli” value is recorded as “not soluble”. The same measure for “MGSDKIHHHHHHMIDLHCHTTASDGVVTPSNVIRQASRKGIAVLAIADHDTVNGLDEAAGAAEKEGICLIPAIELSVAFPKGDFHLLGYGIQYKNENFRNKLAQLRTIREERIFRIIERLKRYGLNLTHEDLQNESQGDAPGKAHVARVLVRKRYASNFNVACKTYLNEGMPGYVPKEKLSLESACELINNAGGLSVLAHPKSLNGENHEEYERIIQMCVSHGLAGIEVYASLHDNQDVRLFLELARRHRLIATGGSDFHGDNGACLGYYGHRRPVPESCSQPLLQKISQNKT”: “not soluble”; for “MAHHHHHHMLSEEEQATLLKYYSTVKLHETQMDQLAQAYWAATREERGEIAKVYAHTFVDPTFVQRLIFFHDYRMSLTAAGAGLSSSTGAAVGTGSSFAGQQSGSESANSPLMAGPPSSFMAESPTTAANHAPRRTHAQHLLRSTIQEHFPKLTGPGPYALQFGCVQSEKEREEVIELYSSQFLHPDPPELHRIVALPSSFSTRTRKRISGSYSWYLRCLATQELVCAVTVTVHQQETIRFAEMPLFATGVGYKKNGFGRLLNAALLAWCAEVGLEFIMISADVQAIPFWRHLGYRAMTRGEKNRIDFFYQHDCCKFKGAETMIGYCNVDRGNGSLSGGVGRRAFHSGGSTEVLHRSVRQVLAQLPRFVVEGPAKLPTE”: “soluble”. The same measure for “MNNTIETILAHRSIRKFTAVPITDEQRQTIIQAGLAASSSSMLQVVSIVRVTDSEKRNELAQFAGNQAYVESAAEFLVFCIDYQRHATINPDVQADFTELTLIGAVDSGIMAQNCLLAAESMGLGGVYIGGLRNSAAQVDELLGLPENSAVLFGMCLGHPDQNPEVKPRLPAHVVVHENQYQELNLDDIQSYDQTMQAYYASRTSNQKLSTWSQEVTGKLAGESRPHILPYLNSKGLAKR”: “soluble”. For the sequence “MGSDKIHHHHHHMSNKPFFYQDPFPLKKDDTEYYLLTSEHVSVAEFEGQEILKVAPEALTLLARQAFHDASFMLRPAHQQQVADILRDPQASENDKYVALQFLRNSDIAAKGVLPTCQDTGTAIIVGKKGQRVWTGGGDEAALARGVYNTYIEDNLRYSQNAALDMYKEVNTGTNLPAQIDLYSVDGDEYKFLCIAKGGGSANKTYLYQETKALLTPGKLKNYLVDKMRTLGTAACPPYHIAFVIGGTSAEANLKTVKLASAKYYDALPTEGNEHGQAFRDIELEKELLLEAQNLGLGAQFGGKYFAHDIRVIRLPRHGASCPVGMGVSCSADRNIKAKINRDGIWIEKLERNPGKYIPEALRQAGEGEAVRVDLNRPMSEILQQLSQYPVSTRLSLNGTIIVGRDIAHAKLKERMDRGEGLPQYIKDHPIYYAGPAKTPEGYASGSLGPTTAGRMDSYVDQLQSQGGSMIMLAKGNRSQQVTDACKKHGGFYLGSIGGPAAVLAQGSIKRLECVEYPELGMEAIWKIEVEDFPAFILVDDKGNDFFQQIQSSQCGAALSNVAALRGGNMIRYFAGERRKRLIRSTPLCCYR”, the “soluble on expression in E. coli” value was “not soluble”. Turning to “MDGIRVYIETFGCTFNQADSEIMAGVLREEGAVLTGIDDADVIIINTCYVKHPTEHKVINRIKKIQETYPEKGLVVAGCMVEIDPSKLEAISGDASWLGPHQLRRAPQAVRAASNGLVERITGFTSDVKVKVPRVRSNPLIHIIPICEGCNGSCSYCCTRFARGRIQSYPSDLIISEAREAVASGCREIQLTAQDTAAYGVDTGEKLSDIIKGISGIPGNFRIRVGMMHPASVLRDLDGLVEAFKSEKVYSFLHLPVQSGSDSVLADMERGHTVDEFRMIVERFRSEIPDISIATDIIVGYPTEEREDFMDTCSLLEEVKPSFIHLSKYRHRPRARSSSLDEIDFRELRRRSRALEELKMRITEEENRRLVGSFQEILVVERGRKGGFIGRTGSYIPVVTETGEPGSFRRVRIRDATGTYLLADLEHHHHHH”, the “soluble on expression in E. coli” value was “soluble”. With “MGHHHHHHSHMACYIYQLPSWVLDDLCRNMDALSEWDWMEFASYVITDLTQLRKIKSMERVQGVSITRELLWWWGMRQATVQQLVDLLCRLELYRAAQIILNWKPAPEI”, the “soluble on expression in E. coli” value is “not soluble”. As for “MIRRLPMTDSRGMNSDKYGIPNIHIRTTPGPDMDKQTKQTNDSGFNSYSRKYHIPRLWYEPARGIYCSDSVSYSWFIQFLQGGIVHVLCRTSLLSISRILRKRGQKVYFGLRKRHEKLVGFASGHGLCLPGPFQHDPIAPVLLPRFPFVRQGRLVRSVLHTGLFE”, the “soluble on expression in E. coli” value is “not soluble”. Turning to “GAMGSIQENLIFPMDNPKGIDGFTNLKEKDIATNENKLLRTITADKMIPAFLITPISSQIAGKVIAQVESDIFAHMGKAVLIPKGSKVIGYYSNNNKMGEYRLDIVWSRIITPHGINIMLTNAKGADIKGYNGLVGELIERNFQRYGVPLLLSTLTNGLLIGITSALNNRGNKEGATNFFGDYLLMQLMRQSGMGINQVVNQILRDKSKIAPIVVIREGSRVFISPNTDIFFPIPRENEVIAEFLK”, the “soluble on expression in E. coli” value was “soluble”.

As for “MLSIKQLSYALAVSKTLHFRKAADLCHVRQSTLSTGVSELERQLGIKIFERDNKKVLVTPLGREVLDKASNIMLQLEDMAHLDHSCGEP”, the “soluble on expression in E. coli” value was “not soluble”.

For “MHKVQRSVLVPYSAAQMFDLVADVEKYPEFMPWCGGAEVHSRSEHGMQASILISFAGLKQRFSTRNTHDYPQRIDLELVDGPFSMLVGHWVFQPLAEDACKVLFTLEYAFSNRALEMVVGPVFNRIAASFIDSFTKRAQAKYGEAAALEHHHHHH”, the “soluble on expression in E. coli” value was “soluble”.
